# In publication PMC2150586 (The Journal of Cell Biology, 1999):
# B1: GSTCdc24 (NH2-terminal 472 amino acids of Cdc24p fused to GST) (domain or fragment)
# chain: MAIQTRFASGTSLSDLKPKPSATSISIPMQNVMNKPVTEQDSLFHICANIRKRLEVLPQLKPFLQLAYQSSEVLSERQSLLLSQKQHQELLKSNGANRDSSDLAPTLRSSSISTATSLMSMEGISYTNSNPSATPNMEDTLLTFSMGILPITMDCDPVTQLSQLFQQGAPLCILFNSVKPQFKLPVIASDDLKVCKKSIYDFILGCKKHFAFNDEELFTISDVFANSTSQLVKVLEVVETLMNSSPTIFPSKSKTQQIMNAENQHRHQPQQSSKKHNEYVKIIKEFVATERKYVHDLEILDKYRQQLLDSNLITSEELYMLFPNLGDAIDFQRRFLISLEINALVEPSKQRIGALFMHSKHFFKLYEPWSIGQNAAIEFLSSTLHKMRVDESQRFIINNKLELQSFLYKPVQRLCRYPLLVKELLAESSDDNNTKELEAALDISKNIARSINENQRRTENHQVVKKLYGRVV
# B2: Ste4p (Gβ) fused to the GAL4 activation domain (pGAD424Ste4) (natural protein)
# chain: MAAHQMDSITYSNNVTQQYIQPQSLQDISAVEDEIQNKIEAARQESKQLHAQINKAKHKIQDASLFQMANKVTSLTKNKINLKPNIVLKGHNNKISDFRWSRDSKRILSASQDGFMLIWDSASGLKQNAIPLDSQWVLSCAISPSSTLVASAGLNNNCTIYRVSKENRVAQNVASIFKGHTCYISDIEFTDNAHILTASGDMTCALWDIPKAKRVREYSDHLGDVLALAIPEEPNSENSSNTFASCGSDGYTYIWDSRSPSAVQSFYVNDSDINALRFFKDGMSIVAGSDNGAINMYDLRSDCSIATFSLFRGYEERTPTPTYMAANMEYNTAQSPQTLKSTSSSYLDNQGVVSLDFSASGRLMYSCYTDIGCVVWDVLKGEIVGKLEGHGGRVTGVRSSPDGLAVCTGSWDSTMKIWSPGYQ
# Experiments:
# [1] = target: T1, MBPFar1 (Far1p residues 133–831 fused to maltose binding protein) (S. cerevisiae, UniProt P21268 133-830); assay: […]
# T1 sequence: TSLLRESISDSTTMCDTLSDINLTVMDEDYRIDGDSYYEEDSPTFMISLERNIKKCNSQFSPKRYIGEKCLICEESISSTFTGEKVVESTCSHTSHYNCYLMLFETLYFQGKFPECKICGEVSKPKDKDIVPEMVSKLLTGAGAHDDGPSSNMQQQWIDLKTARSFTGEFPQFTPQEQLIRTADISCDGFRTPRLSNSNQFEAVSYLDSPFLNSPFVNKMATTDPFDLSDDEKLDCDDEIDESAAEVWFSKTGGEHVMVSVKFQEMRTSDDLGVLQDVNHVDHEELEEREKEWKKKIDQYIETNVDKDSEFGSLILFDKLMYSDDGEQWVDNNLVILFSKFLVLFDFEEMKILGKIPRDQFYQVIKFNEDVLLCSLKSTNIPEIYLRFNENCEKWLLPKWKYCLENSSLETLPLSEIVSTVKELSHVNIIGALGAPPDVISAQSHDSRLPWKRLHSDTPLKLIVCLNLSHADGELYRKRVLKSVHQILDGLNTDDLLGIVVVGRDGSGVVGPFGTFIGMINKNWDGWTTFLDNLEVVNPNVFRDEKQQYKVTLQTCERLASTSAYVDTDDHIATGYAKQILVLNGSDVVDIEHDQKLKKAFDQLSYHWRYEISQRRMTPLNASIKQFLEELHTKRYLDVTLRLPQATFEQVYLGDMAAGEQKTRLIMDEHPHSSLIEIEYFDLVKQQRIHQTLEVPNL
# [2] = target: T2, Cdc24p fused to the GAL4 DNA binding domain (pAS1Cdc24) (S. cerevisiae, UniProt P11433 1-854); assay: two-hybrid
# T2 sequence: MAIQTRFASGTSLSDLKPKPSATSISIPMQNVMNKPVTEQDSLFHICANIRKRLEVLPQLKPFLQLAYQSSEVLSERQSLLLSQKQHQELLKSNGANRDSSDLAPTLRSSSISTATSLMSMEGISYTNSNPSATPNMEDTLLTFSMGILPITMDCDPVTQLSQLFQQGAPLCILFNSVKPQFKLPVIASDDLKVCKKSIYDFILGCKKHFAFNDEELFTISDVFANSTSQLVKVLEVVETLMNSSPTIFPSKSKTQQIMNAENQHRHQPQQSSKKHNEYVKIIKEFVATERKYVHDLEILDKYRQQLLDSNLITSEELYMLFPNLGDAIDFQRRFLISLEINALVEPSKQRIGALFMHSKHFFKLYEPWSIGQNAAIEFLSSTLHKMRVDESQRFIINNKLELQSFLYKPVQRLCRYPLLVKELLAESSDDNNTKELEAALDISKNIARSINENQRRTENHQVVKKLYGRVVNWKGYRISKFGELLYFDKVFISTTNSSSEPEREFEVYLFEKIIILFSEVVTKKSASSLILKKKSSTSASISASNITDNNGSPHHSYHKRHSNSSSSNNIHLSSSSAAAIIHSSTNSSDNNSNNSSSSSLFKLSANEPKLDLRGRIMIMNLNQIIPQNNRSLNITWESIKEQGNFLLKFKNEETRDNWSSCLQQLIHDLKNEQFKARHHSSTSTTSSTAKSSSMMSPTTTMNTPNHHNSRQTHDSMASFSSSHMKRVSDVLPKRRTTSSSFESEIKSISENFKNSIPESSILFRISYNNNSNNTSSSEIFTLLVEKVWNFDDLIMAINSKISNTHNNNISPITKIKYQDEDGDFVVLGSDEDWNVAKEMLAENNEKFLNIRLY
Binder,binding result [1],fold increase in LacZ activity with Gγ overexpressed [2] [fold],further fold increase in LacZ activity with Far1p also overexpressed [2] [fold]
B1,binds,–,–
B2,–,~2,~3.5
